Test results published in US20080280831A1 (BOARD OF REGENTS OF THE UNIVERSITY OF OKLAHOMA, published 2008).

B1: recombinant sTF (TF2-219) (receptor)
chain: GTTNTVAAYNLTWKSTNFKTILEWEPKPVNQVYTVQISTKSGDWKSKCFYTTDTECDLTDEIVKDVKQTYLARVFSYPAGNVESTGSAGEPLYENSPEFTPYLETNLGQPTIQSFEQVGTKVNVTVEDERTLVRRNNTFLSLRDVFGKDLIYTLYYWKSSSSGKKTAKTNTNEFLIDVDKGENYCFSVQAVIPSRTVNRKSTDSPVECMGQEKGEFRE
notes: also called soluble TF; soluble Tissue Factor
B2: sTF-annexin V chimeric protein (other)
chain: GTTNTVAAYNLTWKSTNFKTILEWEPKPVNQVYTVQISTKSGDWKSKCFYTTDTECDLTDEIVKDVKQTYLARVFSYPAGNVESTGSAGEPLYENSPEFTPYLETNLGQPTIQSFEQVGTKVNVTVEDERTLVRRNNTFLSLRDVFGKDLIYTLYYWKSSSSGKKTAKTNTNEFLIDVDKGENYCFSVQAVIPSRTVNRKSTDSPVECMGQEKGEFREGGGGSGGGGSGGGGSAQVLRGTVTDFPGFDERADAETLRKAMKGLGTDEESILTLLTSRSNAQRQEISAAFKTLFGRDLLDDLKSELTGKFEKLIVALMKPSRLYDAYELKHALKGAGTNEKVLTEIIASRTPEELRAIKQVYEEEYGSSLEDDVVGDTSGYYQRMLVVLLQANRDPDAGIDEAQVEQDAQALFQAGELKWGTDEEKFITIFGTRSVSHLRKVFDKYMTISGFQIEETIDRETSGNLEQLLLAVVKSIRSIPAYLAETLYYAMKGAGTDDHTLIRVMVSRSEIDLFNIRKEFRKNFATSLYSMIKGDTSGDYKKALLLLCGEDDPLEHHHHHH
notes: Expressed in the E. coli periplasm from pET-22b(+), whose signal peptide is removed; also called sTF-annV; sTF-AnnV

Target: T1, Factor VIIa (purified human, Enzyme Research Laboratories) (human, UniProt P08709 61-466)
T1 sequence (looked up): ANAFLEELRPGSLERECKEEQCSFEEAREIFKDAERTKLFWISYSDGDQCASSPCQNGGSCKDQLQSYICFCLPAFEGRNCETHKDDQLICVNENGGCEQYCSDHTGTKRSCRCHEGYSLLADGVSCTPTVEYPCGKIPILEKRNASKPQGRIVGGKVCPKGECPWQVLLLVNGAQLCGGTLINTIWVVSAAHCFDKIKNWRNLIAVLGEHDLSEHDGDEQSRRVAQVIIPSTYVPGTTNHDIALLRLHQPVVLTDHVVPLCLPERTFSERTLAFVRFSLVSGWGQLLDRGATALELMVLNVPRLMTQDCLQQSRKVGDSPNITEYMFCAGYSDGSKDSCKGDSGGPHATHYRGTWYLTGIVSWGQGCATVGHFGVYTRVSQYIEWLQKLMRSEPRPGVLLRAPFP
Assay: Titration of cofactor against 5 nM Factor VIIa; increase in amidolytic activity (Chromozym t-PA); no phospholipid vesicles
Procedure: After 10 min at room temperature, Chromozym t-PA was added (1 mM final) and the initial rate of substrate hydrolysis was measured at 405 nm using a microplate reader (Molecular Devices, Menlo Park, Calif.). […] Kinetic parameters were calculated using Prism 4 (GraphPad Software, San Diego, Calif.).

Binder	Kd
B1	8.17 nM
B2	7.05 nM
